The source of these data is PMC5816610.

Data set [1] concerns CRP (purified). In words: EMSA. As to conditions: 1x Transcription buffer (composition in cited ref 50), 37 C, 1 pmol DNA, 10 min then 30 min with protein; 5% PAGE in 1xTBE; purified CRP +/-200 uM cAMP …. In general terms: A gel shift assay detects complexes by their altered migration in electrophoresis.
The target in data set [2] is sigma70-RNA polymerase holoenzyme (UniProt P0A7Z4+P0A8V2+P0A8T7+P0A800+P00579). The data set is described as follows: EMSA. As to conditions: 1x Transcription buffer (composition in cited ref 50), 37 C, 1 pmol DNA, 10 min then 30 min with protein; 5% PAGE in 1xTBE; purified CRP +/-200 uM cAMP ….

yihU/V intergenic region gave a binding signal (fold vs no cAMP) in data set [1] of 1.3. On the same count and under the same terms, as for yihV/W intergenic region, the figure is 1.3.

As for “ATTTAACGGCAGCAAGGCTATTCAGCAGTTCGTTCGGGTCAATACCGTCAGCGATCAGCATTTCGCGATATTGCTGCAGTTTACGAGTGCGCTCTTCAACTTC (double strand) [hns internal region without promoters]”, the binding result in data set [2] is listed as “no binding”.
